Data reported in paper PMC11865060, “Novel human single-domain antibodies exert potent anti-tumor activity by targeting EGF-like repeat epitope of EpCAM” (Frontiers in Pharmacology, 2025).

What was measured:
[1] = target: T1, EpCAM on DU145, PC3 and MCF-7 cancer cells (Homo sapiens (DU145, PC3, MCF-7), UniProt P16422); assay: flow cytometry on cells; cells (1 × 10^6/mL) incubated with the sdAbs at 4°C for 1 h; detection with FITC-conjugated protein A; 293T and 3T3 cells as negative controls; settings: one partner purified
T1 construct: Epithelial cell adhesion molecule (EpCAM), endogenous on the three EpCAM+ human cancer cell lines DU145, PC3 and MCF-7; also called Epithelial cell adhesion molecule; source: endogenous, on DU145, PC3 and MCF-7 cells

[2] = target: T2, EpCAM complete extracellular domain protein (Homo sapiens (assumed), UniProt P16422); assay: ELISA; 0.2 μg of antigen coated per well at 4°C overnight; purified sdAb at 1 μg/mL, RT 1 h; detection with HRP-conjugated protein A, absorbance at 450 nm; settings: both partners purified
T2 construct: Epithelial cell adhesion molecule (EpCAM), complete extracellular domain, bought; Commercial protein; no catalogue number, limits or tags printed; source: bought: Shanghai Bootech BioSci. and Technol
T2 sequence (P16422 24-265): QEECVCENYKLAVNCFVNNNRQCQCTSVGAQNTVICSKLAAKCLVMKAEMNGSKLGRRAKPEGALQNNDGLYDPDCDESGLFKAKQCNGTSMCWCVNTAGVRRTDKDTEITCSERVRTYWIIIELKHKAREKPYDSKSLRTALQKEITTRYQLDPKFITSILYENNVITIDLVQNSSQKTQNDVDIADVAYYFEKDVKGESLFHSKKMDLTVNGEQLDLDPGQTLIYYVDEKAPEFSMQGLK

T1 sequence (P16422 24-314): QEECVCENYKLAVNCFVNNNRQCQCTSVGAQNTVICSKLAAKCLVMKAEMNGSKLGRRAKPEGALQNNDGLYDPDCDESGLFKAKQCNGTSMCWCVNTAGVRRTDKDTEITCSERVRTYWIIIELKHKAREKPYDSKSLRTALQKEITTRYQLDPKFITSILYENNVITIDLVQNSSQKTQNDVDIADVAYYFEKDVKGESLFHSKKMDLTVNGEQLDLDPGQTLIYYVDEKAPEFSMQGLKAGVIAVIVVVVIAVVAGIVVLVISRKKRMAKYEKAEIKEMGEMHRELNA

| Binder | binding result [1] | binding result [2] |
| --- | --- | --- |
| aEP5A5 (VHH, fully human VH single-domain antibody from a phage library (Source BioScience); Human VH-only sdAb (not camelid), not Fc-fused; cloned into pET-22b by Not I and Nco I sites; also called anti-EpCAM sdAb aEP5A5; source: E. coli BL21 (DE3), purified (Ni-NTA)) VHH: QVQLLESGGGLVQPGGSLRLSCAASGVRFSNEVMAWVRQAPGKGLEWVSGIEMKNGSTYYADSVKGRFTISRDNSKNTLYLQMNSLRAEDTAVYYCASWGHSRRQQSKFNSWGQGTLVTVSS | binds |  |
| aEP4G2 (VHH, fully human VH single-domain antibody from a phage library (Source BioScience); Human VH-only sdAb (not camelid), not Fc-fused; cloned into pET-22b by Not I and Nco I sites; also called anti-EpCAM sdAb aEP4G2; source: E. coli BL21 (DE3), purified (Ni-NTA)) VHH: QVQLLESGGGLVQPGGSLRLSCAASGFTFSYNNMAWVRQAPGKGLEWVSAIEGKDGSTYYADSVKGRFTISRDNSKNTLYLQMNSLRAEDTAVYYCARRKGRTEKLSYWGQGTLVTVSS | binds | binds |
| aEP4D11 (VHH, fully human VH single-domain antibody from a phage library (Source BioScience); Human VH-only sdAb (not camelid), not Fc-fused; cloned into pET-22b by Not I and Nco I sites; also called anti-EpCAM sdAb aEP4D11; source: E. coli BL21 (DE3), purified (Ni-NTA)) VHH: QVQLLESGGGLVQPGGSLRLSCAASGVKIIPKSMAWVRQAPGKGLEWVSTIETADGSTYYADSVKGRFTISRDNSKNTLYLQMNSLRAEDTAVYYCASVSRSRTNSLKSWGQGTLVTVSS | binds | binds |
| aEP3D4 (VHH, fully human VH single-domain antibody from a phage library (Source BioScience); Human VH-only sdAb (not camelid), not Fc-fused; cloned into pET-22b by Not I and Nco I sites; also called anti-EpCAM sdAb aEP3D4; source: E. coli BL21 (DE3), purified (Ni-NTA)) VHH: QVQLLESGGGLVQPGGSLRLSCAASGVKFSNHDMTWVRQAPGKGLEWVSAINSGGGSTYYADSVKGRFTISRDNSKNTLYLQMNSLRAEDTAVYYCARMGRQARVPHHMRFWGQGTLVTVSS | binds | binds |
| aEP3B2 (VHH, fully human VH single-domain antibody from a phage library (Source BioScience); Human VH-only sdAb (not camelid), not Fc-fused; cloned into pET-22b by Not I and Nco I sites; also called anti-EpCAM sdAb aEP3B2; source: E. coli BL21 (DE3), purified (Ni-NTA)) VHH: QVQLLESGGGLVQPGGSLRLSCAASGDRVSYKFMAWVRQAPGKGLEWVSSIRGNDGSTYYADSVKGRFTISRDNSKNTLYLQMNSLRAEDTAVYYCARKGKRHYELPYWGQGTLVTVSS | binds | binds |
